Reference: the supplement of paper PMC10065799, “High-throughput profiling of sequence recognition by tyrosine kinases and SH2 domains using bacterial peptide display” (eLife, 2023)

Tests used:
AncSZ = assay: phosphorylation enrichment, bacterial display (enrichment ratio); higher = better substrate or ligand; peptides without Tyr show the background
EPHB1 = EPHB1 (UniProt P54762); assay: as above
EPHB2 = EPHB2 (UniProt P29323); assay: as above
FGFR1 = FGFR1 (UniProt P11362); assay: as above
FGFR3 = FGFR3 (UniProt P22607); assay: as above
Chain of FGFR3 (P22607 whole entry, looked up): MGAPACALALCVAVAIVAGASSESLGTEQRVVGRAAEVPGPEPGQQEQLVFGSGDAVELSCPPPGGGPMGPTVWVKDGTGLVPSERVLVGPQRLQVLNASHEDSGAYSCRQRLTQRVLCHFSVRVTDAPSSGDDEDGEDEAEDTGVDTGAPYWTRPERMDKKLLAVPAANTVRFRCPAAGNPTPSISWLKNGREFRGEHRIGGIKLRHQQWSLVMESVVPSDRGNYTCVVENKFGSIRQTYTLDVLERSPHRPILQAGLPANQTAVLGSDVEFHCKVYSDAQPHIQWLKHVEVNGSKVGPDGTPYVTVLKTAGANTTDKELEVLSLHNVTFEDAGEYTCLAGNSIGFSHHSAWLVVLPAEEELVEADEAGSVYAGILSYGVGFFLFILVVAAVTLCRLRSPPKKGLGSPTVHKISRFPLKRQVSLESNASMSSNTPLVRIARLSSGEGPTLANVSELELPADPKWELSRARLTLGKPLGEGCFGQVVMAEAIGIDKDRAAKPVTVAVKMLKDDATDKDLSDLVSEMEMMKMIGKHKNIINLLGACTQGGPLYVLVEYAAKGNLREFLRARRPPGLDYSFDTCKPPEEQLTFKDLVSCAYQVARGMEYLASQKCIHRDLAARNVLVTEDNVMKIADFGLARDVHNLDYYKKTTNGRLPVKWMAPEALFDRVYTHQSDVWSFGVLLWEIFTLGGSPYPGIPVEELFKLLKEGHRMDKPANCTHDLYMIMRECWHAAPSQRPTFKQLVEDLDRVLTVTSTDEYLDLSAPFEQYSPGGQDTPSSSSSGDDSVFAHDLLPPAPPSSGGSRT

Fer (mouse) = assay: as above
Fes = Fes (UniProt P07332); assay: as above
Chain of Fes (P07332 whole entry, looked up): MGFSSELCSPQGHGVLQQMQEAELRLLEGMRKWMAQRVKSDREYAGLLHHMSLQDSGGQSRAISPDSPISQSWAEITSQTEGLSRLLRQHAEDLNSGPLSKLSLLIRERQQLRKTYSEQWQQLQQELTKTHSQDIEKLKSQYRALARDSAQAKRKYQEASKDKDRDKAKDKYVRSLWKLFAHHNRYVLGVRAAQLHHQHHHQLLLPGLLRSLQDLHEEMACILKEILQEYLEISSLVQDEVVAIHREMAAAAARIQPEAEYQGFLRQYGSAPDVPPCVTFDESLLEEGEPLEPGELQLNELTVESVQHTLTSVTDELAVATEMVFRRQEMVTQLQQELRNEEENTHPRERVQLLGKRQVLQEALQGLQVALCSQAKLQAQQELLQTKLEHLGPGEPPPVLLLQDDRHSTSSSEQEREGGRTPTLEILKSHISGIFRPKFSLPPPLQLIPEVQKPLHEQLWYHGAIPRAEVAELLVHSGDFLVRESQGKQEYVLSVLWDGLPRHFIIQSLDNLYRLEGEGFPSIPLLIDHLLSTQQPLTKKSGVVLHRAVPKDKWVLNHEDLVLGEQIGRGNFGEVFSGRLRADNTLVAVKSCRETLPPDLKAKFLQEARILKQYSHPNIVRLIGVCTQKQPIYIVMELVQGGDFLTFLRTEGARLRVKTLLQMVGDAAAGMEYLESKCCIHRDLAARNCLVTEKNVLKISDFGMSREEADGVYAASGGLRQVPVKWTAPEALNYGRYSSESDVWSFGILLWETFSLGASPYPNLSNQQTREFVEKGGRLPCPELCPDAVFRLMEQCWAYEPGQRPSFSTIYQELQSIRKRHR

Fyn = Fyn (UniProt P06241); assay: as above
Chain of Fyn (P06241 whole entry, looked up): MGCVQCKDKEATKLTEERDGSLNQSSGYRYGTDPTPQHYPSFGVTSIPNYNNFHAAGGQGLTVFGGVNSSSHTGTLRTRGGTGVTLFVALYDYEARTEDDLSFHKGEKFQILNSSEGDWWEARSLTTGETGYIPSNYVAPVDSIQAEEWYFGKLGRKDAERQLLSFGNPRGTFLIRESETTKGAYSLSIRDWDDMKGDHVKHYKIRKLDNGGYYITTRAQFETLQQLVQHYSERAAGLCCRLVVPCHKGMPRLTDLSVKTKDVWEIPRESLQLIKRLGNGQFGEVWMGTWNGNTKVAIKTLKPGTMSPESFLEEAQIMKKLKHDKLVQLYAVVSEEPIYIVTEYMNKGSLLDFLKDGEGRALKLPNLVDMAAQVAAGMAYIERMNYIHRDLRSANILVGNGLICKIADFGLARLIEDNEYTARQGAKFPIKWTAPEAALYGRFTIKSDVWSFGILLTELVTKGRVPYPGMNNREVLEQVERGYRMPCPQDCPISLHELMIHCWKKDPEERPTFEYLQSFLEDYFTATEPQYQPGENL

Hck = Hck (UniProt P08631); assay: as above
Chain of Hck (P08631 whole entry, looked up): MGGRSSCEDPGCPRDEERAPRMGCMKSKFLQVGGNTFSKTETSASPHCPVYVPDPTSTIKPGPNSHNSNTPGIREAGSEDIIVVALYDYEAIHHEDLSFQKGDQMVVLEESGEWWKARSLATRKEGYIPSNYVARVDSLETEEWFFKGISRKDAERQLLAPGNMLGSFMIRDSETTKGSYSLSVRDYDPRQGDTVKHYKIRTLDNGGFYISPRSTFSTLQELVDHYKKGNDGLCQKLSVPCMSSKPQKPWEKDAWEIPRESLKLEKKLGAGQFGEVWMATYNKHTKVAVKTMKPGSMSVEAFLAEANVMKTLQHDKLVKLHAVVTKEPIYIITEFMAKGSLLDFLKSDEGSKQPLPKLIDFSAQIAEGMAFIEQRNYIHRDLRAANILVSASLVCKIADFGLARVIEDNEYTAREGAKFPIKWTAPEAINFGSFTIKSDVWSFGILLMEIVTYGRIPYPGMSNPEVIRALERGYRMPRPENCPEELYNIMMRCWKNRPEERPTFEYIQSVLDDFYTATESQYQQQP

Jak2 = Jak2 (UniProt O60674); assay: as above
Chain of Jak2 (O60674 whole entry, looked up): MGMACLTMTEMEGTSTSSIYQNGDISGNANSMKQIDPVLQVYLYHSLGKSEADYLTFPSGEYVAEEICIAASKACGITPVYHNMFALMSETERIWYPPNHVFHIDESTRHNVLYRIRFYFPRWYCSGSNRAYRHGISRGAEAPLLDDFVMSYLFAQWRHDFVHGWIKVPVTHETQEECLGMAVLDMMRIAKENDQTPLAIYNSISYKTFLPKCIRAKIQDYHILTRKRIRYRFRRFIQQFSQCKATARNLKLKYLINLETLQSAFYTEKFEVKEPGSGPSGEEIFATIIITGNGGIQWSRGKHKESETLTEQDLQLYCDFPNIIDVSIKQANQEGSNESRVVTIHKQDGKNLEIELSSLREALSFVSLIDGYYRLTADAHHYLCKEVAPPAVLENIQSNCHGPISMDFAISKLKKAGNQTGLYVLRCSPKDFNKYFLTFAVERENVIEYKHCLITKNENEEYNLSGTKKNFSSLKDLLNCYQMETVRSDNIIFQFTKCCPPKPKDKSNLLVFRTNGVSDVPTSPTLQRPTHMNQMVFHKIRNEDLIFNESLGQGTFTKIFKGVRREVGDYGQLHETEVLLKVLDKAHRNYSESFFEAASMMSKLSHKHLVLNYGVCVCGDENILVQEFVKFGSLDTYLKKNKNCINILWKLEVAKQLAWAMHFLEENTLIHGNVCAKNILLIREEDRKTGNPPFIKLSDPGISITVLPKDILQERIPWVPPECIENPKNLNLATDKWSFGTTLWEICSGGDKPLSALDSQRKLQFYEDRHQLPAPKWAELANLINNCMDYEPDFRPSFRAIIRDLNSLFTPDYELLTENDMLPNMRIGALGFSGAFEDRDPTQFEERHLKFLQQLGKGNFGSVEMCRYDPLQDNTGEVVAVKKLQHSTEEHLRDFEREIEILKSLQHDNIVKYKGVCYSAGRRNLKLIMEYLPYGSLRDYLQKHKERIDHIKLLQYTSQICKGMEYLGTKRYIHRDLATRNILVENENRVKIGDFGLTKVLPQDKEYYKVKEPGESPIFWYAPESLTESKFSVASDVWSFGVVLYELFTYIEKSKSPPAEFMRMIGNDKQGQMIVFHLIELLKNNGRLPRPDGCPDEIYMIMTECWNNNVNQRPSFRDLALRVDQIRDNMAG

MERTK = MERTK (UniProt Q12866); assay: as above
c-Abl (mouse) = assay: as above
c-Src = assay: as above
Grb2 SH2 = Grb2 SH2 (UniProt P62993); assay: SH2 binding enrichment of the phosphorylated peptide, bacterial display (enrichment ratio); higher = better substrate or ligand; peptides without Tyr show the background
Chain of Grb2 SH2 (P62993 whole entry, looked up): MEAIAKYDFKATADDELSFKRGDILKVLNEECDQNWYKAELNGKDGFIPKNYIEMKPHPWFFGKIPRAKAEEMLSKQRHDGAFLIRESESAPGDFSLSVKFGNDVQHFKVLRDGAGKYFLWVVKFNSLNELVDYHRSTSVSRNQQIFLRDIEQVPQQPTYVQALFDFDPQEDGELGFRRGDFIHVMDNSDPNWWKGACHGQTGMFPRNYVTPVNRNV

SHP2-C SH2 = assay: as above
c-Src SH2 = assay: as above
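Wherever SH2 binding enrichment of the phosphorylated peptide, bacterial display is given: peptide library displayed on the E. coli surface as eCPX fusions, selected cells deep-sequenced, score is each peptide's frequency after selection divided by its frequency in the input.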
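Wherever phosphorylation enrichment, bacterial display is given: 11-residue human phosphosite peptides and single-mutation variants displayed on the E. coli surface, counted by deep sequencing, each peptide's frequency after selection divided by its frequency in the unselected input library; frequency after pTyr selection over input frequency; kinase dosed for 20-30% of maximal phosphorylation in three min.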

Chain of FGFR1 (P11362 whole entry, looked up): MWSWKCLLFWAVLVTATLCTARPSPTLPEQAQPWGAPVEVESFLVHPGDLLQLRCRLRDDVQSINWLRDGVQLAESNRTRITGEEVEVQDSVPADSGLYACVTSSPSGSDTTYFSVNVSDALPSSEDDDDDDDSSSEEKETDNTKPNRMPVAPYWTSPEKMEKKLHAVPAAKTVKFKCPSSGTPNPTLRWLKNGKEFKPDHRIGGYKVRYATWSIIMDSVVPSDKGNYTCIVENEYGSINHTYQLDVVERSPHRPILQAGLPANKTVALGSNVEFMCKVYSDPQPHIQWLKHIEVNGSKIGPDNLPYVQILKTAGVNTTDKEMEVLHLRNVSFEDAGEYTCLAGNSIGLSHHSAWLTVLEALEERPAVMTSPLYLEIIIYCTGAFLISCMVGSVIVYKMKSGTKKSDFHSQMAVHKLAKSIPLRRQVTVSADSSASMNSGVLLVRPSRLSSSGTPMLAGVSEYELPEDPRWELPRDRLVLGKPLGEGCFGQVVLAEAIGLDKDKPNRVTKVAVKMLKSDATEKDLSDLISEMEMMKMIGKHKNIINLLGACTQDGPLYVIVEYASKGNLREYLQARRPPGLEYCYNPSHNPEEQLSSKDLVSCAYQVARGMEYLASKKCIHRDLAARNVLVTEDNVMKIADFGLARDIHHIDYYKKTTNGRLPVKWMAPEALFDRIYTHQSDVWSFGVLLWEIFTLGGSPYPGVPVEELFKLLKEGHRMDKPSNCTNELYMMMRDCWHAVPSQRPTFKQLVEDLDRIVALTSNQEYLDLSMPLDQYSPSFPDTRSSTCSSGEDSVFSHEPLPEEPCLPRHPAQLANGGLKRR

Sequence	phosphorylation enrichment (AncSZ)	phosphorylation enrichment (EPHB1)	phosphorylation enrichment (EPHB2)	phosphorylation enrichment (FGFR1)	phosphorylation enrichment (FGFR3)	phosphorylation enrichment (Fer (mouse))	phosphorylation enrichment (Fes)	phosphorylation enrichment (Fyn)	phosphorylation enrichment (Hck)	phosphorylation enrichment (Jak2)	phosphorylation enrichment (MERTK)	phosphorylation enrichment (c-Abl (mouse))	phosphorylation enrichment (c-Src)	SH2 binding enrichment (Grb2 SH2)	SH2 binding enrichment (SHP2-C SH2)	SH2 binding enrichment (c-Src SH2)
YFRDGCMPRQY [GSS_Y270_Y270C]	0.938	0.602	0.552	0.6	0.883	0.505	0.948	0.43	0.438	0.833	0.406	0.72	0.364	1.08	0.637	0.499
YGLQAYTEVKT [ALDH2_Y502]	1.27	0.721	0.67	0.59	0.842	0.704	1.29	0.546	0.488	1.06	0.55	0.834	0.439	0.984	2.38	6.95
YHLGKYLQEVL [KLB_Y910_Y906H]	1.18	0.481	0.724	0.527	0.739	0.452	1.1	0.524	0.498	0.87	0.383	0.685	0.298	0.878	0.565	0.435
YHLLPYTIRAM [PARS2_Y93_V95I]	1.14	1.17	0.873	16.6	13.8	0.464	0.83	3.83	9.37	7.24	10.9	25.4	5.16	0.994	1.14	6.08
YIGVTYKNEED [PDGFRA_Y993]	1	0.602	0.539	0.71	0.822	0.555	1.05	0.528	0.509	0.961	0.433	0.666	0.461	1.35	1.52	1.89
YKTPTYPYLLP [PLD2_Y578]	0.958	0.459	0.454	0.794	0.786	0.543	0.764	0.525	0.481	0.92	0.589	0.943	0.625	1.04	0.521	1.68
YLAATYPTLGQ [NF1_Y2508_V2511L]	0.779	0.331	0.663	0.824	0.642	0.677	0.773	0.433	0.633	0.754	0.742	0.774	0.637	0.872	0.859	0.764
YLAATYPTVGQ [NF1_Y2508]	0.677	0.357	0.472	0.582	0.51	0.357	0.753	0.455	0.454	1.08	0.73	0.518	0.407	0.796	0.97	0.515
YLGRNYLETLM [DUS3L_Y610_D609N]	0.859	0.578	0.467	0.85	0.744	0.487	0.926	0.435	0.551	0.705	0.467	0.765	0.411	1.01	1.1	0.41
